# Measurements published in patent US20250019450A1 (DIAGONAL THERAPEUTICS, published 2025).
# B1: DGL424 (bispecific antibody, human IgG1, lambda)
# heavy 1: not shown
# heavy 2: QVTLRESGPALVKPTQTLTLTCTFSGFSLSTSGMCVSWIRQPPGKALEWLALIYWDDDKYYSTSLKTRLTISKDTSKNQVVLTMTNMDPVDTATYYCARMRRGIEAFDIWGQGTMVTVFSASTKGPSVFPLAPSSKSTSGGTAALGCLVKDYFPEPVTVSWNSGALTSGVHTFPAVLQSSGLYSLSSVVTVPSSSLGTQTYICNVNHKPSNTKVDKKVEPKSCDKTHTCPPCPAPEAAGAPSVFLFPPKPKDTLMISRTPEVTCVVVDVSHEDPEVKFNWYVDGVEVHNAKTKPREEQYNSTYRVVSVLTVLHQDWLNGKEYKCKVSNKALPAPIEKTISKAKGQPREPQVCTLPPSRDELTKNQVSLSCAVKGFYPSDIAVEWESNGQPENNYKTTPPVLDSDGSFFLVSKLTVDKSRWQQGNVFSCSVMHEALHNRFTQKSLSLSPG
# light: QSVLTQPPSVSGAPGQRVTISCTGSSSNIGAGYDVHWYQQLPGTAPKLLIFGYSNRPSGVPVRFSGSKSGTSASLAITGLLAEDEADFYCQSFDISLTGWVFGGGTKLTVLGQPKAAPSVTLFPPSSEELQANKATLVCLISDFYPGAVTVAWKADSSPVKAGVETTTPSKQSNNKYAASSYLSLTPEQWKSHRSYSCQVTHEGSTVEKTVAPTECS
# notes: 54B1 x 85802_10K12A
# B2: DGL569 (bispecific antibody, V domains shown)
# V domain 1: QVQLVESGGGLVQAGGSLRLSCAASRSISSFNEMAWYRQAPGEQRELVATIVSTVGFTNYADSVKGRFTISRDNAKNTVYLQMNSLKAEDTAVYYCNARRISTDYWGQGTQVTVEP
# V domain 2: QVQLVESGGGLVQPGGSLRLSCAASGFTFSNYAMSWVRQAPGKGLEWVSAINSDGTSTSYADSVKGQFTISRDNAKNTLYLQMNSLKPEDTAVYYCTKWEGDTDSDYKFKDYWGQGTQVTVEP
# notes: 233B1 x 19B2
# B3: DGL572 (bispecific antibody, V domains shown)
# V domain 1: B2 V domain 1
# V domain 2: QVQLVESGGGLVQPGGSLRLSCAASGFTFEPYDMSWFRQAPGKGPEWVSAIDKGGGAGATYYADSVKGRFTISRDNAKKTLYLQMKSLKPEDTAVYYCAITAGPYSDSTPRVAYRGEGTQVTVEP
# notes: 233B1 x 93B2
# B4: DGL516 (bispecific antibody, V domains shown)
# V domain 1: QVQLVESGGGLAQAGGSLRLSCAASGRTFSNDDMAWFRQAPGKEREFVAHIDRNAASTNYADSVKGRFTISRDNAKNTVYLQMTRLKPEDTAVYYCAADPDHFGTTWYQQYTYWGPGTQVTVEP
# V domain 2: B3 V domain 2
# notes: 97B1 x 93B2
# B5: DGL421 (bispecific antibody, human IgG1, lambda)
# heavy 1: not shown
# heavy 2: QVQLQESGPGLVKPSQTLSLTCTVSGGSITTNYYYWSWIRQPPGKGLEWMGAIAYSGSTYYSPSLKSRTSISRDTSKNQFTLQLSSVTPEDTAVYYCASGINFYSNYPTLNEYDYWGQGTQVTVEPKSSDKTHTCPPCPAPEAAGAPSVFLFPPKPKDTLMISRTPEVTCVVVDVSHEDPEVKFNWYVDGVEVHNAKTKPREEQYNSTYRVVSVLTVLHQDWLNGKEYKCKVSNKALPAPIEKTISKAKGQPREPQVCTLPPSRDELTKNQVSLSCAVKGFYPSDIAVEWESNGQPENNYKTTPPVLDSDGSFFLVSKLTVDKSRWQQGNVFSCSVMHEALHNRFTQKSLSLSPG
# light: QTVVTQEPSFSVSPGGTVTLTCGLTSGSVSTSYYPSWYQQTPGQAPRTLIYSTYTRSSGVPDRFSGSILGNKAALTITGAQADDESDYYCVLYMGSGIWVFGGGTKLTVLGQPKAAPSVTLFPPSSEELQANKATLVCLISDFYPGAVTVAWKADSSPVKAGVETTTPSKQSNNKYAASSYLSLTPEQWKSHRSYSCQVTHEGSTVEKTVAPTECS
# notes: 85801_10K15A x 190B2
# B6: 85801_04G19 (antibody, V domains shown)
# VH: QVQLQESGPGLVKPSETLSLTCTVSGGSISSYYWSWIRQSAGKELEWIGRIYTSGSTIYNPSLKSRVTMSVDPSKNQFSLKLSSVTAADTAVYYCANSRSYPHDAFDIWGQGTMVTVSS
# VL: DIQLTQSPSFLSASVGYRVTITCRASQGISSYLAWYQQKPGKAPQLLIYAASTLQSGVPSRFSGRGSGTEFTLTISSLQPEDFATYYCQQLNGYPFTFGPGTKVNIK
# notes: also called 85801_04G19A
# B7: 85801_10K15 (antibody, V domains shown)
# VH: QITLKESGPTLVKPTQTLTLTCTFFGFSLNTGGVGVGWIRQPPGKALEWLTLIYWNDDKRYSPSLKSRLTITKDTSKNQVVLTMTNMDPVDTATYYCAHTLRWYHGFDIWGQGTMVTVSS
# VL: QTVVTQEPSFSVSPGGTVTLTCGLTSGSVSTSYYPSWYQQTPGQAPRTLIYSTYTRSSGVPDRFSGSILGNKAALTITGAQADDESDYYCVLYMGSGIWVFGGGTKLTVL
# notes: also called 85801_10K15A
# B8: VHH211B2 (VHH)
# VHH: QVQLVESGGGLVQAGNSLRLSCAASGRTFSSYVVGWFRQAPGKEREFVGRISWSGARTYYADSVKGRFTISRDNAKNTVYLQMNSLKPEDTAVYYCAADLKWEVLLSEHFEYWGQGTQVTVSS
# B9: VHH229B2 (VHH)
# VHH: QVQLVESGGGLVQAGGSLRLSCAASGRTFSSYAMGWFRQAPGKEREFVSAISWNGGSRYYVESVEGRFTISRDNAKNTVYLQMNSLKPEDTAVYYCAASRIYTNYVARSYEYDDWGQGTQVTVSS
# B10: VHH277B2 (VHH)
# VHH: QVQLVESGGGLVQLGDSLRLSCAASGRGFSSWTMAWFRQALGKRREFVAAITATGARTCSAESEGRFTISRDNAKNMVFLQMNSLKAEDTAVYYCAATEIAGWDPGMGDKYPYWGQGTQVTVSS
# Target: human IL-12 receptor (IL-12Rβ1 and IL-12Rβ2) on HEK-Blue IL-12 cells (human, UniProt P42701 24-662; Q99665 24-862)
# Assay: cell-based or functional assay
Binder,EC50,Max Absorbance
B1,2.6e-10 M (implied),1.49
B2,5.2e-09 M (implied),1.19
B3,1.2e-08 M (implied),1.05
B4,6.5e-11 M (implied),1.05
B5,1.1e-09 M (implied),0.9

# Target: human IL-12Rβ1, Acro (BLI analyte) (human, UniProt P42701 24-545)
# Assay: BLI (Octet), antibody on AHC tip
row,Binder,Kd
1,B2,1.7 nM
2,B3,1.48 nM
3,B4,27.3 nM
4,B5,6.06 nM

# Target: T1, human IL-12Rβ2, Acro (BLI analyte) (human, UniProt Q99665 24-622, limits assumed)
# T1 sequence (looked up): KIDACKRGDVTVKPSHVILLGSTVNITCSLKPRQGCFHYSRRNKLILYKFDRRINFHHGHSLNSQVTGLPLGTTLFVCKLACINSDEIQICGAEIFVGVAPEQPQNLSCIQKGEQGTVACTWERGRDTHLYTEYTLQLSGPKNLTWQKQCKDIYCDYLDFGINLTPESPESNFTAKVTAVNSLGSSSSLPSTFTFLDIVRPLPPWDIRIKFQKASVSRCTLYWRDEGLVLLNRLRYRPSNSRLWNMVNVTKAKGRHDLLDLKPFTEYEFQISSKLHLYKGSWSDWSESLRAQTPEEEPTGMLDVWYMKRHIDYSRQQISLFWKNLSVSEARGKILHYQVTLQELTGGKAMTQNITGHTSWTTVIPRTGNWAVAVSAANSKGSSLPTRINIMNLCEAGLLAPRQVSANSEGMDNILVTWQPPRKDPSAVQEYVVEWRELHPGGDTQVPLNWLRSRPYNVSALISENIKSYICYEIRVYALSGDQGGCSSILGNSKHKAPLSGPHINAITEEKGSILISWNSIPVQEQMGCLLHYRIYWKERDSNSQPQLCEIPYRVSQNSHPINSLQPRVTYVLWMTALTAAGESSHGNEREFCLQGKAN
# Assay: BLI (Octet), antibody on AHC tip
row,Binder,Kd
1,B1,0.726 nM
2,B2,0.723 nM
3,B3,2.41 nM
4,B4,3.41 nM

# Target: T2, human IL-12RB1 overexpressed on 293T cells (Example 2) (human, UniProt P42701 24-662)
# T2 construct: whole, on cells
# Assay: FACS, hybridoma supernatant, 293T
row,Binder,Fold over parental 293T
1,B6,262 fold
2,B7,57 fold

# Target: T3, cyno IL-12RB1 overexpressed on 293T cells (Example 2) (cyno, UniProt A0A2K5VWV1 24-662)
# T3 construct: whole, on cells
# Assay: FACS, hybridoma supernatant, 293T
row,Binder,Fold over parental 293T
1,B6,116 fold
2,B7,21 fold

# Target: T4, human IL-12RB2 with C-terminal HA tag, transiently expressed on HEK-293T cells (human, UniProt Q99665 24-862)
# T4 construct: whole, on cells; also called human IL-12Rβ2
# T4 sequence (looked up): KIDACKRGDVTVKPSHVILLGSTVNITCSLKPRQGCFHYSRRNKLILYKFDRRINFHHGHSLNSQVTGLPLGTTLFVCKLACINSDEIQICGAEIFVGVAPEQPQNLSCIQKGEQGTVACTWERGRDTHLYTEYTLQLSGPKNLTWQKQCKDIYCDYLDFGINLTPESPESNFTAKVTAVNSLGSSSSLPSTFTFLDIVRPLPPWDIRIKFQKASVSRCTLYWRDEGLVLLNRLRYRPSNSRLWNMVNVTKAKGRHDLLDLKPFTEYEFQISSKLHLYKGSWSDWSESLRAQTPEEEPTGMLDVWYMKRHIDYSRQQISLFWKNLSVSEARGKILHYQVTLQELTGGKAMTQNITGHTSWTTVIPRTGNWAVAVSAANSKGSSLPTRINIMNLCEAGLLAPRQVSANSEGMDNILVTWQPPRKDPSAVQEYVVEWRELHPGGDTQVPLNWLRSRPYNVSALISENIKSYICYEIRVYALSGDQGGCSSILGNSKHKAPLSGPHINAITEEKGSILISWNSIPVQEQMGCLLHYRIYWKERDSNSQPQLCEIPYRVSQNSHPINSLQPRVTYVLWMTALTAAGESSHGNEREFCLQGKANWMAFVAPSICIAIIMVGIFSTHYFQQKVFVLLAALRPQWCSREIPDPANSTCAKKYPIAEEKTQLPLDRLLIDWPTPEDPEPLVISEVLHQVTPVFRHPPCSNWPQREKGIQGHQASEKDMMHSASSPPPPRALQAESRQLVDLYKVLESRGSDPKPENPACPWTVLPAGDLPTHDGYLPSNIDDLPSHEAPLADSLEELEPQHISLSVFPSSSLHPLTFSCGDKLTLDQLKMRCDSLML
# Assay: FACS, periplasmic extract, HEK-293T
row,Binder,FOB
1,B8,1.64 fold
2,B9,1.42 fold
3,B10,1.21 fold

# Target: T5, cyno IL-12RB2 with C-terminal HA tag, transiently expressed on HEK-293T cells (cyno, UniProt A0A2K5VNI7 24-860)
# T5 construct: whole, on cells; also called cyno IL-12Rβ2
# T5 sequence: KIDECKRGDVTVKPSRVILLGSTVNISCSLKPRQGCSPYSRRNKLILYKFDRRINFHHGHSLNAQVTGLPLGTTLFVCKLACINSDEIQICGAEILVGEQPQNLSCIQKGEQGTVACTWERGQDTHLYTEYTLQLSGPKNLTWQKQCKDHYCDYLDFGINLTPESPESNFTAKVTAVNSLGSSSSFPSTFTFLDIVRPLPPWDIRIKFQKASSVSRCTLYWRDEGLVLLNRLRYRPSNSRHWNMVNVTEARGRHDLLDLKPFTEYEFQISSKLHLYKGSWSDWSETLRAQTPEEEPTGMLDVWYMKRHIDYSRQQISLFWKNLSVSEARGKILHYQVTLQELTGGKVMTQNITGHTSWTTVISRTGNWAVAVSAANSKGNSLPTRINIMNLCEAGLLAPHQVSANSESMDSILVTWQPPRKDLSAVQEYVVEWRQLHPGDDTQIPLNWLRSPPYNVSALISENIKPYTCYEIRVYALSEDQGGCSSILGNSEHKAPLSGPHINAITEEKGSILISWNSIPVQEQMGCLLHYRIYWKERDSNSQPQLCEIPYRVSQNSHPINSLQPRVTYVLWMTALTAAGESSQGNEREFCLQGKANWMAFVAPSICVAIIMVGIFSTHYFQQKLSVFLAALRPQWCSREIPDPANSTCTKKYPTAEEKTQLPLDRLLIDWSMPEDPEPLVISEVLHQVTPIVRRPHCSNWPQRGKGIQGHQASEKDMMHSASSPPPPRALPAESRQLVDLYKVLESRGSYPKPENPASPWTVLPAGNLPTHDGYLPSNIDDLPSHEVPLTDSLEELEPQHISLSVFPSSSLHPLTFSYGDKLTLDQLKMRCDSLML
# Assay: FACS, periplasmic extract, HEK-293T
row,Binder,FOB
1,B8,0.99 fold
2,B9,1 fold
3,B10,1.55 fold
